From patent US8735085B2, “Method for diagnosing diseases using a protein or degradation product based on half-life” (Becton, Dickinson and Company, priority 2007, dated 2014)
Like-named read-outs stand apart in the source and are kept apart here. No end group written: not given here.

Assays:
[1] = Time-course stability of spiked isotope-labeled (AQUA) peptides in serum and plasma samples, MALDI-TOF MS, first-order fit; assay type: in vitro ADME, human; settings: for T1/2 (h) Citrate / T1/2 (h) EDTA / T1/2 (h) Heparin: plasma
From the text: Methods of determining the half-lives of parent peptides may be determined by a process, which includes by example first spiking the peptide into one or more collection vehicles such as blood collection tubes comprising samples of biological fluid. In some embodiments, the collection vehicle is a swab. As described in an example disclosed herein, commercially available blood collection tubes sampled for determining half-lives included P100, EDTA, citrate, or heparin blood collection containers. The peak intensities of the peptide in each sample are measured at various points in time. […] Accordingly, a line may be constructed for each sample. The slope of the line (−kobs), representing the kinetic rate of the first-order degradation, may be used to compute a half-life value. That is, a kinetic rate constant can be determined by fitting the data with: Ln(I)=−kobs t+C, where I is the peak intensity, or the peak area, t is the incubation time period in the study, C is a constant, and kobs is the observed (or apparent) rate constant. The half-life of the peptide is determined by t1/2=Ln(2)/kobs.
A direct test for stability of a peptide biomarker in a collected blood sample was carried out by monitoring its change during a time-course incubation. It was discovered that the spiked peptides themselves are subject to preanalytical degradation, and thus the spiked peptides became our focus for studying the relative instability of peptides in various blood samples. The stability of AQUA FPA was tested by adding it into either a serum or plasma sample (either BD P100, EDTA, citrate, or heparin plasma) collected from a single venipuncture, or a pooled serum or plasma sample from three healthy individuals. After the spiked sample was incubated for specified periods of time, the peptides were measured by MALDI-TOF MS.
Human blood from healthy individuals was directly drawn into evacuated tubes to obtain serum and plasma samples, as described previously (20). Briefly, serum tubes (BD product #366430) were placed at room temperature (r.t., approx. 24° C.) to clot for 60 min after the collection of the blood, and then centrifuged at 2,500×g for 15 min. at room temperature. Plasma tubes, including citrate tube (BD product #369714), heparin tube (BD product #367886), EDTA tube (BD product #367525), and BD P100 tube (BD product #366456), were spun immediately (within 10 min. after blood was drawn), for 15 min at 2,500×g, and at room temperature to minimize the handling condition and to prevent possible platelet activation. Both plasma and serum samples were pipetted out of the blood-collection tubes into Eppendorf tubes and were frozen within 15 minutes at −80° C. until use. With these optimized handling processes, full acquisition and processing time was minimized to approximately 30 minutes for plasma and 90 minutes for serum.
Isotopically labeled peptides were purchased from Sigma-Genosys (The Woodlands, Tex.). All peptides were synthesized with one stable isotopic amino acid residue, either L-Arginine-13C6 15N4, or L-Phenylalanine-13C9 15N1, with mass of 10 higher than its natural counterpart. The quality of each peptide was verified by HPLC, MALDI-TOF MS (FIG. 6), and amino acid analysis by the vendor with purity higher than 98%. […] The peptides were diluted with relevant solvents to make stocks of 400 fmol/μL for spiking experiments.
The frozen serum and plasma were thawed (once only) in a room temperature water bath for approximately 5 minutes, in order to minimize the dwell time by temperature exposure of the samples. Soluble AQUA peptide (50 μL in water) was spiked into a thawed serum or plasma sample (450 μL), resulting in a final concentration of 40 fmol/μL. The samples were incubated at room temperature. A 45-μL aliquot was withdrawn at each specified time, and quenched by adding 5 μL of 2% TFA solution. […]

[2] = Sequential multi-step reaction (SMSR) kinetic modeling of FPA and its fragments in pooled heparin plasma; assay type: in vitro ADME, human; settings: for apparent rate constants of the sequential reactions (k1-k5, truncation of the peptide) / half-lives: heparin plasma pooled from three healthy individuals; for apparent rate constants of the sequential reactions (k1-k5, truncation of the peptide): first-order SMSR simulation; for half-lives: four replicates, first-order SMSR; for T1/2 (h) in Heparin: SMSR model; for incubation time at which the truncated daughter peptide was detected: AQUA FPA spiked in heparinized plasma
Experimental: Determining half-lives of the degradation products of the peptide, however, entails further modeling and calculations. For examples, sequential multi-step reaction (SMSR) model may be used. Particularly, the half-life of each daughter peptide (e.g., FPA-1, FPA-2, FPA-3, etc.) is determined using information related to one or more of its parent peptides as well as the measured behavior of the daughter peptides creation and further degradation. Accordingly, as represented below, the peptide FPA, referred to as “a” and having a kinetic rate constant k1, is used to determine the half-life of […], referred to as “b” and having a kinetic rate constant k2, which is used to determine the half-life of FPA-2, referred to as “c” and having a kinetic rate constant of k3, and so on.
Accordingly, kj is the kinetic rate constant of step reaction j. Ii is the measured signal (i.e., the peak intensity in MALDI-TOF MS) of peptide i. For example, measured intensities of each of the degradation products of the peptide over a 4 hour time span may be seen in FIG. 3. The peak intensity of, for example, FPA-4, occurs at 2 hours, where is measures 1216.670 m/z. A0 is the initial peak intensity of the parent peptide at time 0. Since Ii=K′iCi+I0, and I0=0 after baseline subtraction, then Ii=K′iCi or Ci=KiIi (1), where
Such calculations are performed for different points in time (i.e., different values of t), so as to plot the varying intensities of each degradation product against the reaction time, as shown in FIG. 4b. The rate constant of each step reaction, kj, can be computed by simulation of the equations (2b)-(6b). Then, the half-lives for each degradation product may be calculated by the equation t1/2=Ln(2)/kj.
For determining kinetic rate constants in a complex sequential reaction observed in this study, analytical solutions were derived from, a first order sequential multi-step reaction (SMSR), as explained above in the discussion concerning equations (1)-(6), (2a)-(6a), and (2b)-(6b). MATLAB (Version 7.0, Mathworks) was employed to numerically simulate this model with the experimental data, and reaction rate constants were then determined in the sequential pattern following the chain reaction sequences. The modeling process was optimized to achieve a best fit to R^2 (goodness-of-fit) calculation.
The observed decrease of the spiked AQUA FPA peptide is caused by the intrinsic amino-peptidase activity (9, 15, 20, 33) as its six fragments, sequentially truncated from the amino terminus, can be detected during the incubation (FIG. 3, FIG. 8). The process was easily observed in heparinized plasma, since the relative instability in this sample facilitated detection of the various truncated peptides within a reasonable experimental time frame (FIG. 3). […] During further incubation, smaller daughter peptides were detected: FPA-3 at 30 min, FPA-4 at one hour, and both FPA-5 and FPA-6 at two hours (FIG. 3, FIG. 8). None of these peptides was detected after eight-hour incubation.
The measurement of the degradation products was sufficiently unambiguous as to allow definition of a kinetic model of the degradation process. To determine the rate constants of the sequential reaction, the fragments of FPA: FPA-1, FPA-2, FPA-3, FPA-4 (FIG. 3), were measured in heparin plasma pooled from three healthy individuals with four replicates, and the average of peak intensities were modeled according to a first-order SMSR (FIG. 4). Simulation of the peak intensities of time-course MS (FIG. 4B) gave apparent rate constants of the sequential reactions: k1=2.1, k2=0.29, k3=1.96, k4=1.6, and k5=0.04 h^−1 for the first five step truncations (FIG. 4A), with goodness-of-fit (R^2) of 0.84, 0.78, 0.77, 0.87, and 0.76, respectively. Accordingly, the half-lives of FPA, FPA-1, FPA-2, FPA-3, and FPA-4 are 0.29, 2.1, 0.31, 0.38, and 15.2 hours, respectively (FIG. 4A). […]

Row | Substance | peptidase-induced degradation of isotopic labeled peptide [1] | apparent rate constants of the sequential reactions (k1-k5, truncation of the peptide) [2] [h⁻¹] | half-lives [2] [h] | T1/2 (h) in Heparin ([2]; heparin plasma) [h] | incubation time at which the truncated daughter peptide was detected [2] | also measured
1 | NGFKSHALQLNNRQIR-OH [C4, NGFKSHALQLNNRQIR] | instability has been observed |  |  |  |  | 
2 | ADSGEGDFLAEGGGVR (listed as Homo sapiens) [FPA] |  | 2.1 | 0.29 | 0.29 |  | detectable up until a period of time after collection [1]: 12 to 48 h; detection of peak after incubation [1]: still easily detected at 48 hours; time until undetectable after collection [1]: undetectable in less than two hours; T1/2 (h) Citrate ([1]; human): <0.1 h; T1/2 (h) EDTA ([1]; human): 3.51 ± 0.05 h; T1/2 (h) Heparin ([1]; human): 0.55 ± 0.02 h; T1/2 (h) Serum ([1]; human, serum): 0.30 ± 0.01 h; half-life in serum (too short to be measured) ([1]; human, serum): less than 15 min.
3 | GLP-1: glucagon-like peptide-1 | instability has been observed |  |  |  |  | 
4 | GEGDFLAEGGGVR (listed as Homo sapiens) [FPA-3] |  | 1.6 | 0.38 | 0.38 | at 30 min | 
5 | BNP: brain natriuretic peptide | instability has been observed |  |  |  |  | 
6 | EGDFLAEGGGVR (listed as Homo sapiens) [FPA-4] |  | 0.04 | 15.2 | 15.2 | at one hour | enhanced half-life compared to the parental FPA ([2]; heparin plasma): 52 fold; time at which the peak intensity occurs ([2]; heparin plasma, 4 hour time span, FIG. 3): 2 h
7 | RPPGFSPFR [bradykinin] |  |  |  |  |  | peptidase-induced degradation of isotopic labeled peptide ([1]; blood samples, BNP, GLP-1, bradykinin data not shown): instability has been observed
8 | DFLAEGGGVR (listed as Homo sapiens) [FPA-6] |  |  |  |  | at two hours | 
9 | SGEGDFLAEGGGVR (listed as Homo sapiens) [FPA-2] |  | 1.96 | 0.31 | 0.31 | Time 0 | 
10 | SSKITHRIHWESASLLR (listed as Homo sapiens) [C3f] | instability has been observed |  |  |  |  | T1/2 (h) Citrate ([1]; human): 0.039 ± 0.01 h; T1/2 (h) EDTA ([1]; human): 0.082 ± 0.01 h; T1/2 (h) Heparin ([1]; human): 0.075 ± 0.01 h; T1/2 (h) Serum ([1]; human, serum): 0.079 ± 0.01 h
11 | DSGEGDFLAEGGGVR (listed as Homo sapiens) [FPA-1] |  | 0.29 | 2.1 | 2.1 | Time 0 | enhanced half-life compared to the parental FPA ([2]; heparin plasma): 7 fold
12 | GDFLAEGGGVR (listed as Homo sapiens) [FPA-5] |  |  |  |  | at two hours | 
